From patent US20150017095A1 (AbbVie / Abbott, published 2015)

Key:
Recombinant Human IL-17 [1] = target: T1, Recombinant Human IL-17 (human, UniProt Q16552 20-155, limits assumed); test: cell-based or functional assay
Recombinant Human IL-17 [2] = target: T1, Recombinant Human IL-17; test: direct bind ELISA, antigen coated on plate (N-terminal VD)
Description: (§1) Enzyme Linked Immunosorbent Assays to screen for antibodies that bind a desired target antigen were performed as follows. High bind ELISA plates (Corning Costar #3369, Acton, Mass.) were coated with 100 μL/well of 10 μg/ml of desired target antigen (R&D Systems, Minneapolis, Minn.) or desired target antigen extra-cellular domain/FC fusion protein (R&D Systems, Minneapolis, Minn.) or monoclonal mouse anti-polyHistidine antibody (R&D Systems # MAB050, Minneapolis, Minn.) in phosphate buffered saline (10×PBS, Abbott Bioresearch Center, Media Prep# MPS-073, Worcester, Mass.) overnight at 4° C. Plates were washed four times with PBS containing 0.02% Tween 20. Plates were blocked by the addition of 300 μL/well blocking solution (non-fat dry milk powder, various retail suppliers, diluted to 2% in PBS) for ½ hour at room temperature. Plates were washed four times after blocking with PBS containing 0.02% Tween 20.
(§2) Plates were washed 4 times with PBS containing 0.02% Tween 20.
(§3) One hundred microliters of enhanced TMB solution (Neogen Corp. #308177, K Blue, Lexington, Ky.) was added to each well and incubated for 10 minutes at room temperature. The reaction was stopped by the addition of 50 μL 1N sulphuric acid.

Recombinant Human IL-17 [3] = target: T1, Recombinant Human IL-17; test: BIACORE SPR, DVD-Ig captured, antigen in flow (N-terminal VD)
Description: (§4) The BIACORE assay (Biacore, Inc, Piscataway, N.J.) determines the affinity of antibodies or DVD-Ig with kinetic measurements of on-rate and off-rate constants. […] All chemicals are obtained from Biacore® AB (Uppsala, Sweden) or otherwise from a different source as described in the text. For example, approximately 5000 RU of goat anti-mouse IgG, (Fcγ), fragment specific polyclonal antibody (Pierce Biotechnology Inc, Rockford, Ill.) diluted in 10 mM sodium acetate (pH 4.5) is directly immobilized across a CM5 research grade biosensor chip using a standard amine coupling kit according to manufacturer's instructions and procedures at 25 μg/ml. Unreacted moieties on the biosensor surface are blocked with ethanolamine. Modified carboxymethyl dextran surface in flowcell 2 and 4 is used as a reaction surface. Unmodified carboxymethyl dextran without goat anti-mouse IgG in flow cell 1 and 3 is used as the reference surface. For kinetic analysis, rate equations derived from the 1:1 Langmuir binding model are fitted simultaneously to association and dissociation phases of all eight injections (using global fit analysis) with the use of Biaevaluation 4.0.1 software. Purified antibodies or DVD-Ig are diluted in HEPES-buffered saline for capture across goat anti-mouse IgG specific reaction surfaces. Antibodies or DVD-Ig to be captured as a ligand (25 μg/m) are injected over reaction matrices at a flow rate of 5 μl/min. The association and dissociation rate constants, kₒₙ (M⁻¹s⁻¹) and koff (s⁻¹) are determined under a continuous flow rate of 25 μl/min. Rate constants are derived by making kinetic binding measurements at different antigen concentrations ranging from 10-200 nM. The equilibrium dissociation constant (M) of the reaction between antibodies or DVD-Igs and the target antigen is then calculated from the kinetic rate constants by the following formula: KD=koff/kₒₙ. Binding is recorded as a function of time and kinetic rate constants are calculated.

[4] = target: T2, Recombinant Human IL-6 sR (human, UniProt P08887 20-358); test: direct bind ELISA, antigen coated on plate (N-terminal VD)
T2 construct: domain: IL-6 sR; Bought reagent; also called IL-6R
T2 sequence (looked up): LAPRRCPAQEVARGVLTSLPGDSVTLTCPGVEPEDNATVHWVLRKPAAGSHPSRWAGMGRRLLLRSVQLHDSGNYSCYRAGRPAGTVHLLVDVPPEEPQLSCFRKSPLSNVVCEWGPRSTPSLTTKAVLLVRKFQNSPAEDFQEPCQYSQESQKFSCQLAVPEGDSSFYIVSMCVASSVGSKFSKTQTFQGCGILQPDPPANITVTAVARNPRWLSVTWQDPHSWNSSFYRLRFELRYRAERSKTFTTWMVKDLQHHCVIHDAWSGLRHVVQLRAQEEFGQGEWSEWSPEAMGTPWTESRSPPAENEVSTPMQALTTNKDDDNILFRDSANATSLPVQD
Description: as §1, §2, §3

[5] = target: T2, Recombinant Human IL-6 sR; test: BIACORE SPR, DVD-Ig captured, antigen in flow (N-terminal VD)
Description: as §4

Recombinant Human VEGF [6] = target: T3, Recombinant Human VEGF (human, UniProt P15692-4 27-191); test: direct bind ELISA, antigen coated on plate (C-terminal VD)
T3 construct: also called VEGF165
Description: as §1, §2, §3

Recombinant Human VEGF [7] = target: T3, Recombinant Human VEGF; test: BIACORE SPR, DVD-Ig captured, antigen in flow (C-terminal VD)
Description: as §4

Recombinant Human VEGF [8] = target: T3, Recombinant Human VEGF; test: direct bind ELISA, antigen coated on plate (N-terminal VD)
Description: as §1, §2, §3

Recombinant Human VEGF [9] = target: T3, Recombinant Human VEGF; test: BIACORE SPR, DVD-Ig captured, antigen in flow (N-terminal VD)
Description: as §4

T1 sequence (Q16552 20-155 limits assumed): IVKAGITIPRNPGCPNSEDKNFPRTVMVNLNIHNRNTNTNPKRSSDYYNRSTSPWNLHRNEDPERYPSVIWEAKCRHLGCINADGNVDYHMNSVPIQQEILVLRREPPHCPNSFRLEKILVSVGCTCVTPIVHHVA
T3 sequence (P15692 other isoform, or with tags, fused parts or gaps limits assumed): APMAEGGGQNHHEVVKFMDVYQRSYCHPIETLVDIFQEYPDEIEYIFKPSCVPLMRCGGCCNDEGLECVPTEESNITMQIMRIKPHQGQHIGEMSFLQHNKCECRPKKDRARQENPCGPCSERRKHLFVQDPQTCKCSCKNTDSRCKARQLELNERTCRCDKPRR

B1: DVD156 (IL-17A / PGE2 DVD-Ig) (bispecific antibody)
VH: EVQLVESGGGLVQPGGSLRLSCAASGFTFSNYWMNWVRQAPGKGLEWVAAINQDGSEKYYVGSVKGRFTISRDNAKNSLYLQMNSLRVEDTAVYYCVRDYYDILTDYYIHYWYFDLWGRGTLVTVSSASTKGPEVQLVQSGAEVKKPGASVKVSCKASGYTFTKYWLGWVRQAPGQGLEWMGDIYPGYDYTHYNEKFKDRVTLTTDTSTSTAYMELRSLRSDDTAVYYCARSDGSSTYWGQGTLVTVSS
VL: not shown
notes: Outer domain is AB029 (IL-17A), inner domain is AB048 (PGE2); also called VD156H; VD156L
For B1, the “N-terminal VD IL-17 Neutralization Assay EC50 nM (IL-6 secretion by HS27 cells)” value (Recombinant Human IL-17 [1]) was 0.2 nM, the EC50 (Recombinant Human IL-17 [2]) was 0.62 nM and the Kd (Recombinant Human IL-17 [3]) was ≤ 0.0115 nM. The koff (Recombinant Human IL-17 [3]) was < 1e-06 s⁻¹ and the kon (Recombinant Human IL-17 [3]) was 86800 M⁻¹ s⁻¹.

B2: DVD152 (IL-6R / PGE2 DVD-Ig) (bispecific antibody)
VH: EVQLQESGPGLVRPSQTLSLTCTVSGYSITSDHAWSWVRQPPGRGLEWIGYISYSGITTYNPSLKSRVTMLRDTSKNQFSLRLSSVTAADTAVYYCARSLARTTAMDYWGQGSLVTVSSASTKGPEVQLVQSGAEVKKPGASVKVSCKASGYTFTKYWLGWVRQAPGQGLEWMGDIYPGYDYTHYNEKFKDRVTLTTDTSTSTAYMELRSLRSDDTAVYYCARSDGSSTYWGQGTLVTVSS
VL: DIQMTQSPSSLSASVGDRVTITCRASQDISSYLNWYQQKPGKAPKLLIYYTSRLHSGVPSRFSGSGSGTDFTFTISSLQPEDIATYYCQQGNTLPYTFGQGTKVEIKRTVAAPDVLMTQTPLSLPVTPGEPASISCTSSQNIVHSNGNTYLEWYLQKPGQSPQLLIYKVSNRFSGVPDRFSGSGSGTDFTLKISRVEAEDVGVYYCFQVSHVPYTFGGGTKVEIKR
notes: Outer domain is AB054 (IL-6R), inner domain is AB048 (PGE2); also called VD152H; VD152L
B2 was tested, and the EC50 [4] was 1.62 nM, the Kd [5] was 0.275 nM and the koff [5] was 0.000115 s⁻¹. For the same binder, the kon [5] was 420000 M⁻¹ s⁻¹.

B3: DVD161 (PGE2 / VEGF DVD-Ig) (bispecific antibody)
VH: EVQLVQSGAEVKKPGASVKVSCKASGYTFTKYWLGWVRQAPGQGLEWMGDIYPGYDYTHYNEKFKDRVTLTTDTSTSTAYMELRSLRSDDTAVYYCARSDGSSTYWGQGTLVTVSSASTKGPEVQLVESGGGLVQPGGSLRLSCAASGYTFTNYGMNWVRQAPGKGLEWVGWINTYTGEPTYAADFKRRFTFSLDTSKSTAYLQMNSLRAEDTAVYYCAKYPHYYGSSHWYFDVWGQGTLVTVSS
VL: DVLMTQTPLSLPVTPGEPASISCTSSQNIVHSNGNTYLEWYLQKPGQSPQLLIYKVSNRFSGVPDRFSGSGSGTDFTLKISRVEAEDVGVYYCFQVSHVPYTFGGGTKVEIKRTVAAPDIQMTQSPSSLSASVGDRVTITCSASQDISNYLNWYQQKPGKAPKVLIYFTSSLHSGVPSRFSGSGSGTDFTLTISSLQPEDFATYYCQQYSTVPWTFGQGTKVEIKR
notes: Outer domain is AB048 (PGE2), inner domain is AB014 (VEGF); also called VD161H; VD161L
B3 showed an EC50 (Recombinant Human VEGF [6]) of 391 nM, a Kd (Recombinant Human VEGF [7]) of 0.755 nM and a koff (Recombinant Human VEGF [7]) of 0.000209 s⁻¹. It also gave a kon (Recombinant Human VEGF [7]) of 277000 M⁻¹ s⁻¹.

B4: DVD162 (VEGF / PGE2 DVD-Ig) (bispecific antibody)
VH: EVQLVESGGGLVQPGGSLRLSCAASGYTFTNYGMNWVRQAPGKGLEWVGWINTYTGEPTYAADFKRRFTFSLDTSKSTAYLQMNSLRAEDTAVYYCAKYPHYYGSSHWYFDVWGQGTLVTVSSASTKGPEVQLVQSGAEVKKPGASVKVSCKASGYTFTKYWLGWVRQAPGQGLEWMGDIYPGYDYTHYNEKFKDRVTLTTDTSTSTAYMELRSLRSDDTAVYYCARSDGSSTYWGQGTLVTVSS
VL: DIQMTQSPSSLSASVGDRVTITCSASQDISNYLNWYQQKPGKAPKVLIYFTSSLHSGVPSRFSGSGSGTDFTLTISSLQPEDFATYYCQQYSTVPWTFGQGTKVEIKRTVAAPDVLMTQTPLSLPVTPGEPASISCTSSQNIVHSNGNTYLEWYLQKPGQSPQLLIYKVSNRFSGVPDRFSGSGSGTDFTLKISRVEAEDVGVYYCFQVSHVPYTFGGGTKVEIKR
notes: Outer domain is AB014 (VEGF), inner domain is AB048 (PGE2); also called VD162H; VD162L
For B4, the EC50 (Recombinant Human VEGF [8]) was 1.79 nM, the Kd (Recombinant Human VEGF [9]) was 0.266 nM and the koff (Recombinant Human VEGF [9]) was 0.000131 s⁻¹. The kon (Recombinant Human VEGF [9]) was 490000 M⁻¹ s⁻¹.
